This passage reports EC50 of BNP, cGMP production in HEK NPRA cells, in presence of negative control Fab results from patent publication US20160168251A1.

The assay has as its target human NPRA on HEK293 cells, without added ligand (human) (UniProt P16066). Nature of the assay: cell-based or functional assay.

Sequence of human NPRA on HEK293 cells, without added ligand (human) (P16066 33-1061 limits assumed): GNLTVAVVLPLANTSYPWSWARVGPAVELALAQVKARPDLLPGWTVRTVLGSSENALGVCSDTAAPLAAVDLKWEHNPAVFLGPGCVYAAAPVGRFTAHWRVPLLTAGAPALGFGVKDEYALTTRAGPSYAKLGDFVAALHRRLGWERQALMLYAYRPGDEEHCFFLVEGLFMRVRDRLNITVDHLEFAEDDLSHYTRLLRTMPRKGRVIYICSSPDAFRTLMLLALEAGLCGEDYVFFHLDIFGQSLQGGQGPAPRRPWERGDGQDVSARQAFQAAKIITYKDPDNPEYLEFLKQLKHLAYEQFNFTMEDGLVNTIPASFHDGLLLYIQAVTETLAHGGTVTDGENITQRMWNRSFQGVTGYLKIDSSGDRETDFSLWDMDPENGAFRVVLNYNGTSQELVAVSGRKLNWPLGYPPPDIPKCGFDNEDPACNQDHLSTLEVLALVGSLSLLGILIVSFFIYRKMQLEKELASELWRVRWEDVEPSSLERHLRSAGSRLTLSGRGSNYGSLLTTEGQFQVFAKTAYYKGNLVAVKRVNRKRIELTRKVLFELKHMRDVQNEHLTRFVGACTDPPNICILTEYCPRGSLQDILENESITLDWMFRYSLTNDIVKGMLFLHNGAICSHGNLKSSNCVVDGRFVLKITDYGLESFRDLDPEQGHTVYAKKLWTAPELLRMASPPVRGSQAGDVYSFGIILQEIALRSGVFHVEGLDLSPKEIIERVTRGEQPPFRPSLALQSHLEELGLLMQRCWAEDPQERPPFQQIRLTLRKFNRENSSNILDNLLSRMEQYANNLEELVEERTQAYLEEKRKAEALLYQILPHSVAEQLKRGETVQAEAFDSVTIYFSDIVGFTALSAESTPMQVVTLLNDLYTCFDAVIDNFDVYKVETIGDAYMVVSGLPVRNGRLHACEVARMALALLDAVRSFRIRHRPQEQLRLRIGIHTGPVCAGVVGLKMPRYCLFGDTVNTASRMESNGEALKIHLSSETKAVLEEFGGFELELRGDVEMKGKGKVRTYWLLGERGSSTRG

In the case of “B-type natriuretic peptide (BNP), free (from UniProt P16860 27-134) (ligand)”, the EC50 of BNP, cGMP production in HEK NPRA cells, in presence of negative control Fab came to 90 nM.
